Molecular target: mXRN1p (Mus musculus (mouse; testis BALB/c and …, UniProt P97789 1-1719)
Experiment: EMSA

Sequence of mXRN1p (Mus musculus (P97789 whole entry): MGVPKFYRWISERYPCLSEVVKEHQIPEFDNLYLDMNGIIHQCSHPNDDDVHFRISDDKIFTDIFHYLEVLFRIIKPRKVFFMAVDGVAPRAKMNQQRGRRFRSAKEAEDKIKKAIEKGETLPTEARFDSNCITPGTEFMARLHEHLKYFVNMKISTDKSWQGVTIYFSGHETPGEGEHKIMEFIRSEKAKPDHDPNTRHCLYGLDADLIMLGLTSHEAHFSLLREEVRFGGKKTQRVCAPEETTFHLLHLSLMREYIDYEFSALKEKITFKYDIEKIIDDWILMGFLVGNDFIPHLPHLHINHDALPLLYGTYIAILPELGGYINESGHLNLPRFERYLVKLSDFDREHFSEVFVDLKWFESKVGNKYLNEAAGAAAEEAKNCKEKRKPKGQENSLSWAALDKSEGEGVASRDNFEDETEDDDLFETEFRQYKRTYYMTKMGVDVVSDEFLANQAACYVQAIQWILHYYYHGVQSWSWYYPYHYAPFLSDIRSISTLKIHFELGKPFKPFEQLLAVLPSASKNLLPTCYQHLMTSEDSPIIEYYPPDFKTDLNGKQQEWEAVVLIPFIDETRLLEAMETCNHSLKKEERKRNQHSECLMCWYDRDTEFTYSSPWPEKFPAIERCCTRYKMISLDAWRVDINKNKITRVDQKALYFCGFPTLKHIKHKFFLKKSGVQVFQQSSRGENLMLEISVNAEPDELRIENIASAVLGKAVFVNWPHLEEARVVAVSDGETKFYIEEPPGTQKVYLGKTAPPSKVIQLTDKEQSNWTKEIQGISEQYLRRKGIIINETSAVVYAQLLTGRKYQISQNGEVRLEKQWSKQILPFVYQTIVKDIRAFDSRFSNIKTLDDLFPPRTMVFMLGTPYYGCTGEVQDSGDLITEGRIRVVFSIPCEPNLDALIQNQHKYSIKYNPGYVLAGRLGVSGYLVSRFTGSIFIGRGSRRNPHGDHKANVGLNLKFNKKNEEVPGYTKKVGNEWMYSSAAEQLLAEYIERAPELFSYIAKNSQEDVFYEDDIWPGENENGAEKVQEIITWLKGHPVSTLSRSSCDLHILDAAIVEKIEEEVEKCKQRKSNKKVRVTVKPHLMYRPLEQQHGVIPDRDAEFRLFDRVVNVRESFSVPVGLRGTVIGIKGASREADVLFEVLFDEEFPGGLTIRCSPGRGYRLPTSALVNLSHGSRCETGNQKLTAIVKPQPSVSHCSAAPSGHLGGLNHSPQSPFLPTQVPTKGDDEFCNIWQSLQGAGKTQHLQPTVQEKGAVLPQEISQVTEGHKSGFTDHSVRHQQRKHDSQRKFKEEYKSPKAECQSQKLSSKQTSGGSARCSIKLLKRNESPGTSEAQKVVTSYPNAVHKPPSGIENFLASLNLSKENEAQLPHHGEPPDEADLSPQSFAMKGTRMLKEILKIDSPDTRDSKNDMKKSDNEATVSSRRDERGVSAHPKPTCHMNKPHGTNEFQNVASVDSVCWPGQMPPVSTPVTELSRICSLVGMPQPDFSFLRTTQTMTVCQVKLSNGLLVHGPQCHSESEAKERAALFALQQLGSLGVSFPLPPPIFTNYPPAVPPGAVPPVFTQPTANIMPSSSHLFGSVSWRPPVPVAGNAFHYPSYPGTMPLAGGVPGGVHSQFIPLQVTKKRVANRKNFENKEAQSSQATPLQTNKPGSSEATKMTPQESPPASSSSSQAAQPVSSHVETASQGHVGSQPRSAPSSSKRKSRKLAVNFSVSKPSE

Binder | Ka
TATGGGGGAGCTGGGGAAGGTGGGATTT (structured_DNA) [GL[G4]] | 1.26e+10 M⁻¹
UAUGGGGGAGCUGGGGAAGGUGGGAUUU (structured_RNA) [rGL[G4]] | 2.95e+10 M⁻¹

From article PMC2132493
